{
  "source": "patent US20200262867A1",
  "about": "(WNTRX PHARMACEUTICALS, published 2020)",
  "binders": {"B1": {"name": "SEQ ID NO: 141 (peptide)", "peptide": "{4‑(trifluoromethyl)benzoic acid}-L[NMeQ]TLR[S5]IQR[S5][Cba][2Nal]-NH2", "modifications": "staple 6-10; not fully specified", "notes": "the footnote mark in T0158 is printed 19, seemingly for 10"}, "B2": {"name": "SEQ ID NO: 21 (peptide)", "peptide": "Ac-AQTAR[S5]IQR[S5]L[2Nal]-NH2", "modifications": "staple 6-10", "SMILES": "CC[C@H](C)[C@@H]1NC(=O)[C@@](C)(NC(=O)[C@H](CCCNC(=N)N)NC(=O)[C@H](C)NC(=O)[C@@H](NC(=O)[C@H](CCC(N)=O)NC(=O)[C@H](C)NC(C)=O)[C@@H](C)O)CCCC=CCCC[C@@](C)(C(=O)N[C@@H](CC(C)C)C(=O)N[C@@H](Cc2ccc3ccccc3c2)C(N)=O)NC(=O)[C@H](CCCNC(=N)N)NC(=O)[C@H](CCC(N)=O)NC1=O"}},
  "note": "Bridges are numbered along the chain shown (N, C = ends). Primed or numbered codes have the meaning given here. [ ]: non-standard residue; d: D form. S5′ = (S)-2-(4'-pentenyl)alanine, olefinic stapling residue closed by ring-closing metathesis; 2Nal = N[C@@H](Cc1ccc2ccccc2c1)C(=O)O; hArg = N=C(N)NCCCC[C@H](N)C(=O)O; NMeQ = CN[C@@H](CCC(N)=O)C(=O)O; Cba = N[C@@H](CC1CCC1)C(=O)O; S5 = C=CCCC[C@](C)(N)C(=O)O",
  "data": [
    {"molecular_target": "T1, β-catenin (UniProt P35222 1-781, limits assumed)", "T1 construct": "also called beta-catenin", "T1 sequence (looked up)": "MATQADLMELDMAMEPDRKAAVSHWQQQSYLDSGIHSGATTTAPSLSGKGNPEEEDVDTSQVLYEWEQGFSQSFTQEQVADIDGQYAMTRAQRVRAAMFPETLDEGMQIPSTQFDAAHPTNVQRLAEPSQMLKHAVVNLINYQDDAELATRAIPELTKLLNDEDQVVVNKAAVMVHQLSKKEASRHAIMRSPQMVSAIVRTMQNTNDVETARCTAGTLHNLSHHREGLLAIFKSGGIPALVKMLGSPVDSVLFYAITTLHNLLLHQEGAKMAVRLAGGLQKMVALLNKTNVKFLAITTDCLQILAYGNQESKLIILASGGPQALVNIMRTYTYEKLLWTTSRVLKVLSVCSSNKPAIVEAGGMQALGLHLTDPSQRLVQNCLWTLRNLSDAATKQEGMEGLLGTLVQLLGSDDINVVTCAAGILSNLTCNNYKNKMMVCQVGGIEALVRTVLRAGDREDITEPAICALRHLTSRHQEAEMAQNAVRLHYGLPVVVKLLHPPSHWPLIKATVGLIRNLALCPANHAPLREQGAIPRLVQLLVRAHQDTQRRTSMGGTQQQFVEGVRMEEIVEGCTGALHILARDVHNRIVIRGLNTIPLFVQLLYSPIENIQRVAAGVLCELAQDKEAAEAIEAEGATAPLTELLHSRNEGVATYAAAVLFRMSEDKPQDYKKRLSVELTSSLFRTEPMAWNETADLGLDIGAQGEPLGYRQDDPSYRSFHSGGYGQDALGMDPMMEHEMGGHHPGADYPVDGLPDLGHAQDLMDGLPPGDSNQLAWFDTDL", "experiment": "ALPHA Screen (BCL9/β-catenin);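 note: bead proximity readout with the polypeptide linked to donor beads and β-catenin fixed on acceptor beads, their binding bringing the beads close enough to emit signal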", "units": {"IC50": "µM"}, "source_text": "In this assay, a polypeptide is conjugated to a donor bead and its target protein (i.e., β-catenin) is attached to an acceptor bead. When the two beads are in proximity due to the binding of the polypeptide to the target protein, a signal is generated and the binding affinity of the polypeptide can be quantitatively calculated. The assay may be conducted in the presence or absence of an unconjugated control polypeptide.", "values": [
      {"binder": "Ac-HRQRSLQTL[hArg][S5]IQR[S5][Cba][2Nal]-NH2 (staple 11-15)", "note": "[SEQ ID NO: 170]", "IC50": 0.43},
      {"binder": "B1", "IC50": 2.25},
      {"binder": "Ac-HRQRSLQTLR[S5]IQ[hArg][S5][Cba][2Nal]-NH2 (staple 11-15)", "note": "[SEQ ID NO: 171]", "IC50": 0.34},
      {"binder": "{5‑phenylvaleric acid}-L[NMeQ]TLR[S5]IQR[S5][Cba][2Nal]-NH2 (staple 6-10; not fully specified)", "note": "[SEQ ID NO: 142]", "IC50": 6.07},
      {"binder": "Ac-LQTLR[S5]IQR[S5]A[2Nal]-NH2 (staple 6-10)", "note": "[SEQ ID NO: 77]", "IC50": 7.68},
      {"binder": "B2", "IC50": 7.61},
      {"binder": "Ac-LQTAR[S5]AQR[S5]L[2Nal]-NH2 (staple 6-10; not fully specified; printed as LQTARXAQRXL(2-Nal))", "note": "[SEQ ID NO: 22]", "IC50": 11.4},
      {"binder": "Ac-LQTLR[S5]AQR[S5]A[2Nal]-NH2 (staple 6-10; not fully specified; printed as LQTLRXAQRXA(2-Nal))", "note": "[SEQ ID NO: 23]", "IC50": 30},
      {"binder": "Ac-LQTAR[S5]IQR[S5]L[2Nal]-NH2 (staple 6-10)", "note": "[SEQ ID NO: 75]", "IC50": 6.29},
      {"binder": "Ac-LQTLR[S5]AQR[S5]L[2Nal]-NH2 (staple 6-10)", "note": "[SEQ ID NO: 76]", "IC50": 8.99},
      {"binder": "Ac-LQTLE[S5′]IQR[S5′]L[2Nal]-NH2 (staple 6-10)", "note": "[SEQ ID NO: 98]", "IC50": 47.1},
      {"binder": "Ac-LQTLR[S5′]IQE[S5′]L[2Nal]-NH2 (staple 6-10)", "note": "[SEQ ID NO: 99]", "IC50": 50},
      {"binder": "Ac-LQTLK[S5]IQR[S5]L[2Nal]-NH2 (staple 6-10)", "note": "[SEQ ID NO: 100]", "IC50": 14.4},
      {"binder": "Ac-LQTLR[S5]IQK[S5]L[2Nal]-NH2 (staple 6-10)", "note": "[SEQ ID NO: 101]", "IC50": 10.6},
      {"binder": "Ac-[dL]QTIR[S5]IQR[S5]L[2Nal]-NH2 (staple 6-10)", "note": "[SEQ ID NO: 102]", "IC50": 6.84},
      {"binder": "Ac-LQT[dL]R[S5]IQR[S5]L[2Nal]-NH2 (staple 6-10)", "note": "[SEQ ID NO: 103]", "IC50": 2.86},
      {"binder": "Ac-LQTLR[S5]IQR[S5][dL][2Nal]-NH2 (staple 6-10)", "note": "[SEQ ID NO: 105]", "IC50": 10.7},
      {"binder": "Ac-LETLR[S5]IQR[S5][Cba][2Nal]-NH2 (staple 6-10)", "note": "[SEQ ID NO: 109]", "IC50": 0.913}
    ]}
  ]
}
